# Measured values taken from US20090137003A1.
# Target: RSV protein F (recombinant or purified F protein) (respiratory syncytial virus (RSV), strain not stated)
# Experiment: SPR (Biacore), Fab on recombinant antigen
substance,measurement,value
Fab fragments derived from commercially available Palivizumab (Synagis),Kd,3.78 nM
same,koff,0.000757 s⁻¹
same,kon,200000 M⁻¹ s⁻¹
same,t1/2,15 min
